Measured values as given in article PMC4897735, “Acousto-microfluidics for screening of ssDNA aptamer”.

Target: prostate-specific antigen (PSA) (UniProt P07288 25-261)
Experiment: SPR; AS2 3-50 nM, 2 mM MgCl2; SPR (Biacore CM5): PBS pH 7.4, 2 mM MgCl2 (PBSM), 25 °C, 15 µl/min, blank flow cell reference
Conditions: protein: commercial

prostate-specific antigen (PSA), sequence (P07288 25-261): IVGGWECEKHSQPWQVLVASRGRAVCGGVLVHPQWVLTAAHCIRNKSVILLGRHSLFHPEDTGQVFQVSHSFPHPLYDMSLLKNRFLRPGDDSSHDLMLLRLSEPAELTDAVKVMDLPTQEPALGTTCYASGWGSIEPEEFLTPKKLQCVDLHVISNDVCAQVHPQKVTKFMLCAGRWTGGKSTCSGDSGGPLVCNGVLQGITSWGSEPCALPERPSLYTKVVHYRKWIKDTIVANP

GGGCGGGGCGGACGAGACAGTAAGGGCTGTGGGTGTGGTG (ssDNA) [AS2]
Kd: 0.7 nM
